The values below come from article PMC11555649, “Yop1 stability and membrane curvature generation propensity are controlled by its oligomerisation interface” (Biochemical Journal, 2024).

Numbering of substitutions follows the chain as printed. Names and notes keep the numbering of the source.

Series [1] deals with the molecule itself. Nature of the series: SEC-MALS; self-association; 100 µl at 1-1.4 mg/ml on Superdex 200 10/300GL; 20 mM HEPES pH 7.5, 150 mM NaCl, 5% glycerol; protein in DDM micelles, protein and detergent masses separated. (In general: SEC sorts molecules by how far they enter the pores of the column.)
Series [2] concerns the molecule itself. Nature of the series: native gel or EMSA; Blue native PAGE, NativePAGE 4-16% Bis-Tris gel, ~0.8 mg/ml protein in DDM micelles, 150 V, 4°C; self-association. In general terms: In EMSA bound probe runs differently from free probe, usually more slowly.

B1: Yop1 (wildtype, full length, Saccharomyces cerevisiae) (natural protein, UniProt Q12402 1-180, looked up)
chain: MSEYASSIHSQMKQFDTKYSGNRILQQLENKTNLPKSYLVAGLGFAYLLLIFINVGGVGEILSNFAGFVLPAYLSLVALKTPTSTDDTQLLTYWIVFSFLSVIEFWSKAILYLIPFYWFLKTVFLIYIALPQTGGARMIYQKIVAPLTDRYILRDVSKTEKDEIRASVNEASKATGASVH
notes: Yop1, Saccharomyces cerevisiae, UniProt Q12402, full length gene in pCold I; Integral membrane protein, kept in DDM detergent micelles; tags removed with TEV protease; also called WT; wildtype Yop1; source: E. coli C43, purified (Strep-Tactin, TEV cleavage, His-tag resin flow-through, SEC) in DDM; not shown: (His)9, N-terminal, cleaved; Twin-Strep-tag, N-terminal, cleaved
Broadly, the stoichiometry N is a count of units in the complex or per binding partner. Take B1: the “stoichiometry N” value in series [1] came out at 2.

B2: Yop1 S75F variant (natural protein, Saccharomyces cerevisiae, UniProt Q12402 1-180, looked up)
chain: B1 chain with S75F
notes: Yop1, Saccharomyces cerevisiae, UniProt Q12402, full length gene in pCold I, with S75F; Homologous to the REEP1 SPG31 mutation S23F; source: E. coli C43, purified (Strep-Tactin, TEV cleavage, His-tag resin flow-through, SEC) in DDM; not shown: (His)9, N-terminal, cleaved; Twin-Strep-tag, N-terminal, cleaved
In the case of B2, the “stoichiometry N” value in series [2] is 2.

B3: Yop1 A72E variant (natural protein, Saccharomyces cerevisiae, UniProt Q12402 1-180, looked up)
chain: B1 chain with A72E
notes: Yop1, Saccharomyces cerevisiae, UniProt Q12402, full length gene in pCold I, with A72E; Homologous to the REEP1 SPG31 mutation A20E; source: E. coli C43, purified (Strep-Tactin, TEV cleavage, His-tag resin flow-through, SEC) in DDM; not shown: (His)9, N-terminal, cleaved; Twin-Strep-tag, N-terminal, cleaved
For B3, the “stoichiometry N” value in series [1] was 2.

B4: Yop1 P71L variant (natural protein, Saccharomyces cerevisiae, UniProt Q12402 1-180, looked up)
chain: B1 chain with P71L
notes: Yop1, Saccharomyces cerevisiae, UniProt Q12402, full length gene in pCold I, with P71L; Homologous to the REEP1 SPG31 mutation P19L; prone to aggregation in preparative SEC; source: E. coli C43, purified (Strep-Tactin, TEV cleavage, His-tag resin flow-through, SEC) in DDM; not shown: (His)9, N-terminal, cleaved; Twin-Strep-tag, N-terminal, cleaved
In the case of B4, the “stoichiometry N” value in series [2] amounted to 2.
